# Results: patent US20120027722A1
# Key:
# [1] = target: soluble HCV E2 truncated at amino acid 661 (sE2661), His-tagged (Hepatitis C virus (isolate not stated)); experiment: SPR (BIAcore), sE2
# [2] = target: soluble HCV E2 truncated at amino acid 661 (sE2661), His-tagged (Hepatitis C virus (isolate not stated)); experiment: SPR (BIAcore A100), antibody captured on anti-Fc chip, sE2 injected 1.56-50 nM, 1:1 Langmuir fit
Substance,Kd [1] [µM],Kd [2] [µM]
AP33 Fab,0.05,
AP33 antibody (as used in Example 2),,0.005 to 0.008
